We go through 16 molecules from patent US20080044423A1 (AstraZeneca / MedImmune, published 2008).

One may read the IC50 as the midpoint of a concentration-inhibition curve.

The target of assay [1] is T1, HIS FLAG tagged human IL-17A (in house HEK EBNA derived) (human, UniProt Q16552 24-155).
T1 construct: glycosylated, from HEK EBNA cells; also called HIS FLAG IL-17A; HIS FLAG human IL-17A; not shown: HIS FLAG tag
In words: HTRF receptor-ligand assay: inhibition of HIS FLAG IL-17A binding IL-17RA Fc; scFv, non-germlined sequence.

The target in assay [2] is human IL-17A derived from the HEK-EBNA expression system (human, UniProt Q16552 24-155). In words: cell-based or functional assay.
For assay [3], the target named is T2, cynomolgus IL-17A (cynomolgus, UniProt Q16552 24-155 (human entry), limits assumed).
T2 chain: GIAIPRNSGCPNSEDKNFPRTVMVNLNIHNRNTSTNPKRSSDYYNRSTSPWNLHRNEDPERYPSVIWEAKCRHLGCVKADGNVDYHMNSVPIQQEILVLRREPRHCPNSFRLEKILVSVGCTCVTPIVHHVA
In words: cell-based or functional assay.

In assay [4] the target is T1, HIS FLAG tagged human IL-17A (in house …). In words: HTRF receptor-ligand assay: inhibition of HIS FLAG IL-17A binding IL-17RA Fc. (In general: TR-FRET usually uses a lanthanide donor and a delayed reading to cut background.)
In assay [5] the target is human IL-17A receptor on HT1080 cells (human). In words: cell-based or functional assay.
Assay [6] has as its target T3, Biosource mAb (reference anti-IL-17 mAb).
T3 construct: murine (detected with anti-murine Fc)
In words: HTRF epitope competition vs HIS FLAG IL-17A binding the IgG.

The target of assay [7] is T4, Antibody 2 IgG1.
T4 construct: human IgG1, lambda; constant regions not in the listing; also called Antibody 02
Described as above.

T4 sequence (VH, as listed by the source): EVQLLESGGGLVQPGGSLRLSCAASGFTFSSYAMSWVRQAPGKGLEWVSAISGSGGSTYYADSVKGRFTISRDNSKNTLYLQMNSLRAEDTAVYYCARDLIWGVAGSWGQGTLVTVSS

B1: Antibody 2 scFv (non-germlined) (scFv, V domains shown)
VH: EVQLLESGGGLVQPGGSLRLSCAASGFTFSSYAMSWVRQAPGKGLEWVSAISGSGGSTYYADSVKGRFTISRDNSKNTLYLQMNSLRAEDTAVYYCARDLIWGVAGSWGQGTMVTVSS
VL: NFMLTQPHSVSESPGKTVTISCTRSSGSLANYYVQWYQQRPGSAPTIVIFANNQRPSGVPDRFSGSIDSSSNSASLTISRLKTEDEADYYCQSYDPHSVVFGGGTKLTVL
notes: scFv (one chain)
In assay [1], B1 gave an IC50 of 0.7 nM. For the same molecule, the results for the “HT1080 IL-6 release, scFv IC50” value in assay [2] and in assay [3] were 16.2 nM and 99 nM, respectively.

B2: Antibody 12 IgG1 (antibody, V domains shown)
VH: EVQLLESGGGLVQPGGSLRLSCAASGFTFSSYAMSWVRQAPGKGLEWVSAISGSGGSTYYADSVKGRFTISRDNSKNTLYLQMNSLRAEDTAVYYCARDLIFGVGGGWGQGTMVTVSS
VL: NFMLTQPHSVSESPGKTVTISCTRSSGSLANYYVQWYQQRPGSAPTIVIFANNQRPSGVPDRFSGSIDSSSNSASLTISRLKTEDEADYYCQTYDPYSVVFGGGTKLTVL
Regarding B2, the figures for the “HT1080 IL-6 release, IgG IC50” value in assay [2] and in assay [3] were 2.1 nM and 4.2 nM, respectively. For the same molecule, the “Fold difference in cross-reactivity (IgG)” value (from here on “Fold difference”) in assay [3] was determined as 2 fold.

B3: Antibody 10 IgG1 (antibody, V domains shown)
VH: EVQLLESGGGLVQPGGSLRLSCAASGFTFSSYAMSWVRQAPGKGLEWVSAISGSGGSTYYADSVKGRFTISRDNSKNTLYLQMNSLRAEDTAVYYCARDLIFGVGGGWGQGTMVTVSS
VL: NFMLTQPHSVSESPGKTVTISCTRSSGSLANYYVQWYQQRPGSAPTIVIFANNQRPSGVPDRFSGSIDSSSNSASLTISRLKTEDEADYYCQSYDPHSVVFGGGTKLTVL
Take B3: the “HT1080 IL-6 release, IgG IC50” value in assay [2] worked out at 2.2 nM; in assay [3] it was 4.9 nM. Further, the “Fold difference” value in assay [3] was 2 fold.

B4: Antibody 3 IgG1 (antibody, V domains shown)
VH: not shown
VL: NFMLTQPHSVSESPGKTVTISCTRSSGSLANYYVQWYQQRPGSAPTIVIFANNQRPSGVPDRFSGSIDSSSNSASLTISRLKTEDEADYYCQSYSPHSVVFGGGTKLTVL
On to B4, for which, in assay [2], the “HT1080 IL-6 release, IgG IC50” value was 0.8 nM. Further, in assay [3], the “Fold difference” value was found to be 16 fold and the “HT1080 IL-6 release, IgG IC50” value was determined as 13 nM.

B5: Antibody 4 IgG1 (antibody, V domains shown)
VH: not shown
VL: NFMLTQPHSVSESPGKTVTISCTRSSGSLANYYVQWYQQRPGSAPTIVIFANNQRPSGVPDRFSGSIDSSSNSASLTISRLKTEDEADYYCQSYSPTSVVFGGGTKLTVL
With B5, the “HT1080 IL-6 release, IgG IC50” value in assay [2] was determined as 0.9 nM. For the same molecule, in assay [3], the “Fold difference” value is 8 fold and the “HT1080 IL-6 release, IgG IC50” value was found to be 7.3 nM.

B6: Antibody 9 IgG1 (antibody, V domains shown)
VH: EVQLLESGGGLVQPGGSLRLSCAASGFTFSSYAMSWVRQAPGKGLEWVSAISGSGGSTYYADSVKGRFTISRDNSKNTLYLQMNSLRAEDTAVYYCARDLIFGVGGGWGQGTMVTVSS
VL: NFMLTQPHSVSESPGKTVTISCTRSSGSLANYYVQWYQQRPGSAPTIVIFANNQRPSGVPDRFSGSIDSSSNSASLTISRLKTEDEADYYCQSYSPHSVVFGGGTKLTVL
In the case of B6, in assay [2], the “HT1080 IL-6 release, IgG IC50” value is 2.3 nM. In assay [3], the “Fold difference” value is 4 fold and the “HT1080 IL-6 release, IgG IC50” value was 9.2 nM.

B7: Antibody 5 IgG1 (antibody, V domains shown)
VH: not shown
VL: NFMLTQPHSVSESPGKTVTISCTRSSGSLANYYVQWYQQRPGSAPTIVIFANNQRPSGVPDRFSGSIDSSSNSASLTISRLKTEDEADYYCQSYNHKDIVFGGGTKLTVL
Consider B7, for which the “HT1080 IL-6 release, IgG IC50” value in assay [2] was found to be 1.4 nM. Moreover, in assay [3], the “Fold difference” value is 28 fold and the “HT1080 IL-6 release, IgG IC50” value came to 39.7 nM.

B8: Antibody 11 scFv (scFv, V domains shown)
VH: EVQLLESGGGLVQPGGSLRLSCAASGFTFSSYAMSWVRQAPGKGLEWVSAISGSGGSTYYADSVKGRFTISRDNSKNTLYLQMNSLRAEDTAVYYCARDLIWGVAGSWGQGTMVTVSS
VL: NFMLTQPHSVSESPGKTVTISCTRSSGSLANYYVQWYQQRPGSAPTIVIFANNQRPSGVPDRFSGSIDSSSNSASLTISRLKTEDEADYYCQSYSPHSVVFGGGTKLTVL
notes: scFv (one chain)
Consider B8, for which the “HT1080 IL-6 release, scFv IC50” value in assay [2] was determined as 8.2 nM. Besides, the “HT1080 IL-6 release, scFv: % inhibition printed in the IC50 column (no IC50 reached)” value in assay [3] is 20%. In assay [4], this molecule had an IC50 of 0.6 nM.

B9: Antibody 8 scFv (scFv, V domains shown)
VH: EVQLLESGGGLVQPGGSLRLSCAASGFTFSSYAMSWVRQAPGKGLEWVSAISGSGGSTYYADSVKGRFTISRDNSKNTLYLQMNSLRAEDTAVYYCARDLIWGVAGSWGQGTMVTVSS
VL: NFMLTQPHSVSESPGKTVTISCTRSSGSLANYYVQWYQQRPGSAPTIVIFANNQRPSGVPDRFSGSIDSSSNSASLTISRLKTEDEADYYCQSYNHKDIVFGGGTKLTVL
notes: scFv (one chain)
B9: the “HT1080 IL-6 release, scFv IC50” value in assay [2] stood at 34.3 nM; in assay [3], 96.4 nM. Besides, in assay [4], the IC50 is 0.7 nM.

B10: Antibody 13 scFv (non-germlined) (scFv, V domains shown)
VH: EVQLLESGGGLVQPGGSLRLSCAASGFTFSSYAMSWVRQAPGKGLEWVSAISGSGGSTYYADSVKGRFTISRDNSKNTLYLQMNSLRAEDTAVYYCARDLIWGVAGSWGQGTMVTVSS
VL: NFMLTQPHSVSESPGKTVTISCTRSSGSLANYYVQWYQQRPGSAPTIVIFANNQRPSGVPDRFSGSIDSSSNSASLTISRLKTEDEADYYCQSYDPRVVVFGGGTKLTVL
notes: scFv (one chain)
B10: the figures for the “HT1080 IL-6 release, scFv IC50” value in assay [2] and in assay [3] were 35.9 nM and 147 nM, respectively. In addition, the IC50 in assay [4] turned out to be 1.6 nM.

B11: Antibody 6 scFv (non-germlined) (scFv, V domains shown)
VH: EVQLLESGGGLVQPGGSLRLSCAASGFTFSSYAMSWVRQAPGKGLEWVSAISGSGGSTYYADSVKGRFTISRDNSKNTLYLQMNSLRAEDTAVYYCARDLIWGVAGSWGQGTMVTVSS
VL: NFMLTQPHSVSESPGKTVTISCTRSSGSLANYYVQWYQQRPGSAPTIVIFANNQRPSGVPDRFSGSIDSSSNSASLTISRLKTEDEADYYCQSYSPSSVVFGGGTKLTVL
notes: scFv (one chain)
In the case of B11, the “HT1080 IL-6 release, scFv IC50” value in assay [2] amounted to 31.2 nM; in assay [3], 136 nM. For the same molecule, the IC50 in assay [4] turned out to be 1.7 nM.

B12: Antibody 15 scFv (non-germlined) (scFv, V domains shown)
VH: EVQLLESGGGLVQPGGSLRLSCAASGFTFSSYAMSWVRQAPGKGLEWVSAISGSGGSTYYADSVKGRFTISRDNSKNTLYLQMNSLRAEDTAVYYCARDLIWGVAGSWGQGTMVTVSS
VL: NFMLTQPHSVSESPGKTVTISCTRSSGSLANYYVQWYQQRPGSAPTIVIFANNQRPSGVPDRFSGSIDSSSNSASLTISRLKTEDEADYYCQSYSPTSVVFGGGTKLTVL
notes: scFv (one chain)
Consider B12, for which the “HT1080 IL-6 release, scFv IC50” value came out at 21.7 nM in assay [2] and 159 nM in assay [3]. This molecule also showed an IC50 in assay [4] of 1.6 nM.

B13: Antibody 16 scFv (scFv, V domains shown)
VH: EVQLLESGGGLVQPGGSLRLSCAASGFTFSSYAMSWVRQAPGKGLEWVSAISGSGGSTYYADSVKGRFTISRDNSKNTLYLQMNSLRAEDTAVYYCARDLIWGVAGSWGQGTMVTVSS
VL: NFMLTQPHSVSESPGKTVTISCTRSSGSLANYYVQWYQQRPGSAPTIVIFANNQRPSGVPDRFSGSIDSSSNSASLTISRLKTEDEADYYCQTYDPYSVVFGGGTKLTVL
notes: scFv (one chain)
With B13, the “HT1080 IL-6 release, scFv IC50” value was determined as 13 nM in assay [2] and 249 nM in assay [3].

B14: Antibody 14 scFv (non-germlined) (scFv, V domains shown)
VH: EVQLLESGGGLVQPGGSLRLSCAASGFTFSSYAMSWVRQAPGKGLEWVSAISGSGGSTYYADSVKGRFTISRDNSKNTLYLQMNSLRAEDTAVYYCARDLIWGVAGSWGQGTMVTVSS
VL: NFMLTQPHSVSESPGKTVTISCTRSSGSLANYYVQWYQQRPGSAPTIVIFANNQRPSGVPDRFSGSIDSSSNSASLTISRLKTEDEADYYCQSYDPTNQVFGGGTKLTVL
notes: scFv (one chain)
Turning to B14, the “HT1080 IL-6 release, scFv IC50” value in assay [2] was 36.7 nM; in assay [3], 99.5 nM. The molecule further registered an IC50 in assay [4] of 2.5 nM.

B15: Mutant IL-17A (L74Q, G75R, I77V, D80E, N82K, V83L, Y85H) with C-terminal His tag (HEK/EBNA) (ligand)
chain: GITIPRNPGCPNSEDKNFPRTVMVNLNIHNRNTNTNPKRSSDYYNRSTSPWNLHRNEDPERYPSVIWEAKCRHQRCVNAEGKLDHHMNSVPIQQEILVLRREPPHCPNSFRLEKILVSVGCTCVTPIVHHVAHHHHH
Take B15: in assay [5], the “IL-6 release from HT1080 cells, EC50” value turned out to be 2.36 nM.

B16: dog IL-17A (in house E. Coli derived) (ligand)
chain: GIAFPQNPGCRNTEDKNFPQHVKVNLNILNRNTNSRRPSDYYNRSTSPWNLHRNEDPERYPSVIWEAKCRHLGCVNNEGNINYHMNSVPIQQEILVLRRESQHCPHSFRLEKMLVAVGCTCVTPIVRHVA
Take B16: the values for the IC50 in assay [6] and in assay [7] were 50 nM and 34 nM, respectively.
